In the supplement of paper PMC10567573:

B1: VPS39 (parent)
chain: LRLENNHCHIEESEHVLKKAHKYS

Variants of: B1
Experiment: protein stability index of a GFP-peptide fusion (GPS, HEK-293T) (PSI 1-6); higher = more stable
Settings: c terminus: a fixed tail appended
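Further: lentivirally expressed fusions sorted by FACS into six bins by GFP to DsRed ratio, PSI derived from sequencing read proportions per bin multiplied by bin number.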

Protein stability index, by site and new letter:
N6: C 2.44 | H 3.16 | Q 2.63 | D 2.54 | Y 2.23 | T 2.35 | W 1.97 | A 2.72 | I 2.33 | P 2.12 | K 3.49 | R 2.49 | E 3.13 | F 1.75 | V 2.13 | M 1.87 | S 2.55 | G 2.66 | L 2.58
N5: I 2.22 | E 2.46 | K 3.08 | F 1.27 | Y 2.37 | G 1.91 | R 2.77 | T 2.48 | C 2.22 | W 1.74 | Q 2.18 | A 2.23 | M 2.33 | V 1.48 | P 2.29 | H 1.91 | L 2.23 | S 1.98 | D 1.94
L17: F 2.79 | R 2.8 | N 2.48 | E 2.88 | S 2.84 | W 1.72 | Q 2.4 | T 3.14 | H 1.55 | C 2.65 | M 1.56 | V 2.4 | I 2.35 | G 2.84 | P 2.14 | A 1.83 | Y 2.55 | K 2.27 | D 3.68
C8: N 2.38 | S 2.88 | F 2.29 | T 3.19 | A 3.17 | H 3.03 | Q 2.27 | K 3.3 | D 3.58 | Y 1.86 | E 2.35 | G 2.27 | R 2.95 | L 2.47 | I 2.15 | P 2.53 | V 1.88 | M 2.43 | W 2.4
I10: Y 2.57 | C 3.18 | Q 3 | H 3.17 | A 3.75 | R 3.01 | T 3.02 | M 2.34 | G 2.74 | W 2.43 | E 3.08 | P 3.1 | D 3.53 | K 3.33 | S 3.33 | N 2.73 | V 2.68 | F 2.11 | L 1.9
A20: I 1.61 | E 3.06 | Q 1.45 | S 2.19 | H 2.3 | R 2.11 | T 2.43 | F 2.24 | L 1.71 | D 2.73 | C 2.04 | P 2.23 | N 2.38 | K 2.13 | G 2.73 | M 1.98 | V 2.52
E11: L 2.86 | R 3.35 | A 3.06 | Y 3.06 | H 2.52 | M 2.31 | F 1.75 | G 2.72 | C 1.99 | K 2.79 | P 2.26 | T 2.49 | V 1.97 | I 2.12 | N 2.19 | D 2.65 | Q 2.06 | S 3.04 | W 2.75
S13: T 2.37 | L 1.95 | E 2.26 | Q 1.82 | V 2.76 | G 2.56 | Y 2.75 | N 2.12 | D 2.49 | K 2.92 | M 1.64 | C 2.06 | P 2.63 | W 1.01 | I 1.32 | R 2.15 | F 1.73 | H 2.18 | A 2.69
E4: F 2.54 | S 2.71 | H 3.32 | V 2.71 | D 3.12 | M 2.65 | I 2.17 | W 2.44 | L 2.35 | T 2.56 | R 3.45 | A 2.68 | K 3.45 | N 3.92 | G 2.41 | Q 2.92 | P 2.83 | C 2.44 | Y 2.53
H9: S 3.23 | F 1.92 | L 1.84 | K 3.59 | T 3.29 | W 2.18 | R 2.83 | V 2.4 | M 2.42 | Q 2.57 | C 2.86 | A 2.2 | Y 1.92 | E 1.59 | I 2.19 | D 2.68 | P 1.8 | N 2.27 | G 2.7
V16: R 2.48 | F 3.08 | K 2.49 | G 2.62 | C 2.1 | H 2.02 | E 2.83 | T 2.39 | P 3.07 | Q 1.39 | S 2.65 | A 3.01 | Y 1.9 | I 2.29 | D 3.13 | W 1.49 | L 2.47 | N 2.38 | M 1.97
H15: Y 2.41 | Q 1.98 | S 2.64 | C 2.18 | W 2.09 | P 2.34 | R 2.86 | G 1.89 | K 2.74 | E 2.6 | L 2.1 | M 3.02 | V 1.5 | N 3.07 | T 2.71 | I 2.41 | A 2.87 | F 2.53 | D 2.56
K19: A 2.3 | G 2.21 | F 1.98 | V 2.4 | D 2.59 | Y 2.67 | L 1.52 | R 2.37 | T 2.2 | N 2.39 | I 2.01 | M 2.52 | W 1.34 | P 2.41 | E 2.45 | Q 2.51 | H 1.91 | S 2.1 | C 2.24
K18: D 2.31 | C 2.02 | T 1.87 | N 2.6 | I 2.26 | G 2.08 | S 1.91 | W 1.27 | E 1.94 | F 2.09 | Y 2.39 | A 2.42 | P 1.85 | M 2.12 | H 2.17 | L 1.88 | R 2.21 | Q 2.42 | V 2.54
H7: M 2.46 | Q 2.34 | V 2.35 | I 2.15 | P 3.01 | T 2.88 | F 2.03 | S 2.04 | R 2.9 | W 2.17 | C 2.15 | G 1.97 | K 2.84 | A 2.79 | D 2 | L 2.32 | Y 2.79 | E 2.38 | N 3.37
E12: Y 3.21 | F 1.24 | L 3.66 | H 2.75 | K 2.94 | N 2.44 | R 2.14 | P 1.93 | I 1.96 | M 2.68 | C 2.11 | V 1.35 | A 2.19 | D 3.1 | W 1.78 | T 2.01 | G 2.26 | S 2.61 | Q 2.15
E14: R 2.06 | T 1.78 | N 2.31 | D 2.12 | I 1.88 | K 2.29 | G 2.56 | Q 2.1 | C 1.37 | V 2.9 | S 2.42 | F 1.46 | Y 1.88 | P 2.4 | L 2.16 | M 1.73 | W 2.67 | A 2.38 | H 2.33
L3: Y 2.56 | V 2.38 | T 3.06 | K 4.32 | N 3.17 | S 3.33 | I 2.62 | Q 4.06 | W 3.01 | R 4.51 | P 3.7 | M 3.13 | H 3.6
